Numbering of substitutions follows the chain as printed. Names may count otherwise.
B1: Endo-S2 D184M (protein)
chain: EEKTVQTGKTDQQVGAKLVQEIREGKRGPLYAGYFRTWHDRASTGIDGKQQHPENTMAEVPKEVDILFVFHDHTASDSPFWSELKDSYVHKLHQQGTALVQTIGVNELNGRTGLSKDYPDTPEGNKALAAAIVKAFVTDRGVDGLDIMIEHEFTNKRTPEEDARALNVFKEIAQLIGKNGSDKSKLLIMDTTLSVENNPIFKGIAEDLDYLLRQYYGSQGGEAEVDTINSDWNQYQNYIDASQFMIGFSFFEESASKGNLWFDVNEYDPNNPEKGKDIEGTRAKKYAEWQPSTGGLKAGIFSYAIDRDGVAHVPSTYKNRTSTNLQRHEVDNISHTDYTVSRKLKTLMTEDKRYDVIDQKDIPDPALREQIIQQVGQYKGDLERYNKTLVLTGDKIQNLKGLEKLSKLQKLELRQLSNVKEITPELLPESMKKDAELVMVGMTGLEKLNLSGLNRQTLDGIDVNSITHLTSFDISHNSLDLSEKSEDRKLLMTLMEQVSNHQKITVKNTAFENQKPKGYYPQTYDTKEGHYDVDNAEHDILTDFVFGTVTKRNTFIGDEEAFAIYKEGAVDGRQYVSKDYTYEAFRKDYKGYKVHLTASNLGETVTSKVTATTDETYLVDVSDGEKVVHHMKLNIGSGAIMMENLAKGAKVIGTSGDFEQAKKIFDGEKSDRFFTWGQTNWIAFDLGEINLAKEWRLFNAETNTEIKTDSSLNVAKGRLQILKDTTIDLEKMDIKNRKEYLSNDENWTDVAQMDDAKAIFNSKLSNVLSRYWRFCVDGGASSYYPQYTELQILGQRLSNDVANTLKD
B2: Endo-S2 D184A (protein)
chain: B1 chain with M148A
B3: Endo-S D233A (protein)
chain: MDKHLLVKRTLGCVCAATLMGAALATHHDSLNTVKAEEKTVQVQKGLPSIDSLHYLSENSKKEFKEELSKAGQESQKVKEILAKAQQADKQAQELAKMKIPEKIPMKPLHGPLYGGYFRTWHDKTSDPTEKDKVNSMGELPKEVDLAFIFHDWTKDYSLFWKELATKHVPKLNKQGTRVIRTIPWRFLAGGDNSGIAEDTSKYPNTPEGNKALAKAIVDEYVYKYNLDGLDVAVEHDSIPKVDKKEDTAGVERSIQVFEEIGKLIGPKGVDKSRLFIMDSTYMADKNPLIERGAPYINLLLVQVYGSQGEKGGWEPVSNRPEKTMEERWQGYSKYIRPEQYMIGFSFYEENAQEGNLWYDINSRKDEDKANGINTDITGTRAERYARWQPKTGGVKGGIFSYAIDRDGVAHQPKKYAKQKEFKDATDNIFHSDYSVSKALKTVMLKDKSYDLIDEKDFPDKALREAVMAQVGTRKGDLERFNGTLRLDNPAIQSLEGLNKFKKLAQLDLIGLSRITKLDRSVLPANMKPGKDTLETVLETYKKDNKEEPATIPPVSLKVSGLTGLKELDLSGFDRETLAGLDAATLTSLEKVDISGNKLDLAPGTENRQIFDTMLSTISNHVGSNEQTVKFDKQKPTGHYPDTYGKTSLRLPVANEKVDLQSQLLFGTVTNQGTLINSEADYKAYQNHKIAGRSFVDSNYHYNNFKVSYENYTVKVTDSTLGTTTDKTLATDKEETYKVDFFSPADKTKAVHTAKVIVGDEKTMMVNLAEGATVIGGSADPVNARKVFDGQLGSETDNISLGWDSKQSIIFKLKEDGLIKHWRFFNDSARNPETTNKPIQEASLQIFNIKDYNLDNLLENPNKFDDEKYWITVDTYSAQGERATAFSNTLNNITSKYWRVVFDTKGDRYSSPVVPELQILGYPLPNADTIMKTVTTAKELSQQKDKFSQKMLDELKIKEMALETSLNSKIFDVTAINANAGVLKDCIEKRQLLKK
B4: Endo-S D233Q (protein)
chain: B3 chain with A233Q
B5: Endo-S WT: wild-type Endo-S, endo-β-N-acetylglucosaminidase of Streptococcus pyogenes (SEQ ID NO: 1) (protein)
chain: B3 chain with A233D
modifications: Streptococcus pyogenes

Legend:
Format in all cases: biochemical
[1] = Kinetic measurements (KM, Vmax) of Endo-S/Endo-S2 mutants for SCT-Oxa; settings: for Km / kcat: donor substrate SCT-Oxa, PBS pH 7.4, 30° C.
Protocol: Using a sialylated glycan oxazoline (SCT-Oxa) as the donor and the deglycosylated rituximab as the acceptor substrate, we measured the kinetic parameters of the enzyme catalyzed glycosylation were measured. A mass spectrometry-based approach with an internal standard was used to estimate the product formation.^31-33.
(§1) Peptide-N-Glycosidase F (PNGase F) treated rituximab was used as the internal standard due to its similarities to the deglycosylated and transferred product in terms of their molecular structures and ionization efficiencies. After PNGase F treatment, a mutation will be introduced into the amino acid sequence of rituximab so the product antibody will not interfere with the reaction via re-glycosylation^35. A standard product S2G2F-rituximab was synthesized following the previously reported procedure^29. […] Serial dilutions containing a gradient of S2G2F-rituximab (0, 0.25, 0.5, 0.75, 1.0, 1.25 and 1.5 μM) were mixed with a stock solution containing 0.67 μM internal standard. These mixed sample solutions were quantified by selected ion monitoring (SIM) to calculate the single-point normalization factor^31. The factor could then be used to calculate the relative amount of the final product N-glycoform for each reaction in the following experiments.
Measurements of KM and Vmax for SCT-oxa. Serial dilutions with a total volume of 10 μL were prepared with a gradient of SCT-oxa concentrations and a constant deglycosylated antibody concentration mixed in PBS, pH 7.4. Each reaction was initiated by adding 1μμL, of Endo-S/S2 mutants with a concentration of 0.1 mg/M1 and the reaction was conducted at 30° C. The concentrations of SCT-oxa were within a range from 6.25 μM to 400 μM. For each reaction, three aliquots were taken at t=1, 2 and 3 min and immediately quenched in 100 μL 0.1% formic acid. The quenched reaction samples were then characterized by ESI-MS, and the concentration of product in each mixture was calculated using the normalization factor, as shown above. […] The KM and Vmax were measured by fitting the initial velocity against the SCT-oxa concentration using the GraphPad Prism7 program. The experiments were conducts in triplicate to determine the error in these measurements.

deglycosylated rituximab [2] = assay: Kinetic measurements (KM, Vmax) of Endo-S/Endo-S2 mutants for deglycosylated rituximab
Description: as §1
Measurements of KM and Vmax for SCT-oxa. Serial dilutions with a total volume of 10 μL were prepared with a gradient of SCT-oxa concentrations and a constant deglycosylated antibody concentration mixed in PBS, pH 7.4. Each reaction was initiated by adding 1μμL, of Endo-S/S2 mutants with a concentration of 0.1 mg/M1 and the reaction was conducted at 30° C. The concentrations of SCT-oxa were within a range from 6.25 μM to 400 μM. For each reaction, three aliquots were taken at t=1, 2 and 3 min and immediately quenched in 100 μL 0.1% formic acid. The quenched reaction samples were then characterized by ESI-MS, and the concentration of product in each mixture was calculated using the normalization factor, as shown above. A linear progression curve was confirmed for each reaction by sampling at multiple early time points and plotting them in the same graph, which emphasized that the V0 measured indeed represents the initial rate of each reaction. The KM and Vmax were measured by fitting the initial velocity against the SCT-oxa concentration using the GraphPad Prism7 program. The experiments were conducts in triplicate to determine the error in these measurements.
The KM and Vmax values of both Endo-S and Endo-S2 mutants for the deglycosylated antibody substrate were measured in a similar fashion as to those for SCT-Oxa. In the serial reactions, the concentrations of antibody range from 0.313 μM to 20 μM, whereas the SCT-Oxa concentration was fixed at 400 μM. A similar control reaction was also performed for each concentration to monitor the non-enzymatic side reactions.

rituximab = assay: Hydrolysis activity assay of Endo-S and D233 mutants, LC-ESI-MS; settings: rituximab 1.0 mg/mL as substrate, enzyme 0.01 mg/mL, PBS pH 7.4, 30° C., 5 min, duplicate
Protocol: (§2) The hydrolytic activity of the mutants generated was evaluated using rituximab as the substrate, and the transglycosylation activity was evaluated using the sugar oxazoline and the deglycosylated rituximab as the donor and acceptor substrates, respectively (Scheme 1).
(§3) The LC-MS characterization of different antibody glycoforms was conducted on an Exactive Plus Orbitrap instrument (Thermo Scientific). The intact antibody sample was analyzed with a Waters XBridge™ BEH300 C4 column (3.5 μm, 2.1×50 mm). The program includes a 9 min linear gradient of 5-90% MeCN containing 0.1% formic acid at a flow rate of 0.4 mL/min. The original mass data were processed through deconvolution and integration through MagTran Software (Amgen).
as §1
(§4) The hydrolytic activity of each Endo-S mutants and the wild-type (0.01 mg/mL) was assayed in PBS (pH 7.4, 10 μl) at 30° C. with synthetic biantennary sialo-complex-type rituximab (1.0 mg/mL, 6.9 μM) as the starting material. Each reaction was terminated at 5 min and an aliquot was taken from the reaction mixture and dissolved in 0.1% formic acid. The relative quantity of the hydrolysis product was calculated through deconvolution and integration of the selected MS peaks. The experimental details of product quantification using LC-MS are illustrated below. The transglycosylation activity of Endo-S was measured in a similar fashion: deglycosylated Rituximab (10.0 mg/mL, 69 μM) was incubated with SCT-Oxa (1.38 mM, 20 eq) under catalysis of Endo-S enzymes (0.01 mg/mL) under the same condition as hydrolysis. The transglycosylation product SCT-Rituximab was analyzed as mentioned above. Both functional assays were repeated twice for each mutant and the wild-type, and the average activity was recorded

deglycosylated rituximab [3] = assay: Transglycosylation activity assay of Endo-S and D233 mutants, LC-ESI-MS; settings: for Transglycosylation Activity: deglycosylated rituximab 10.0 mg/mL, SCT-Oxa 1.38 mM (20 eq), enzyme 0.01 mg/mL, PBS pH 7.4, 30° C., duplicate; for Transglycosylation/Hydrolysis Ratio T/H: ratio of transglycosylation to hydrolysis activity, Table 1
Protocol: as §2, §3, §1, §4

[4] = Endo-S2, glycan oxazoline substrate
[5] = Endo-S2 mutants, acceptor substrate deglycosylated rituximab, SCT-Oxa fixed at 400 μM

Molecule	Km ([1]; Endo-S2 mutants)	kcat ([1]; Endo-S2 mutants)	Km (deglycosylated rituximab [2]; [5])	Specific Hydrolysis Activity (rituximab)	Transglycosylation Activity (deglycosylated rituximab [3])	Transglycosylation/Hydrolysis Ratio T/H (deglycosylated rituximab [3])	also measured
B1	229 ± 34.8 µM	2.7968 ± 0.3417 s⁻¹	32.6 ± 6.71 µM				decrease in substrate affinity (KM) versus D184A [1, 4]: less than 2 fold; increase in catalytic turnover numbers (kcat) over D184A [1, 4]: more than 15 fold; increase in kcat/KM over D184A ([1]; Endo-S2, sugar oxazoline substrate): more than 10 fold; catalytic turnover number compared with Endo-S D233M (in words) ([1]; for both the sugar oxazoline and the antibody substrates): significantly higher catalytic turnover number than Endo-S D233M; substrate affinity for the deglycosylated antibody (in words) (deglycosylated rituximab [2]; Asp-to-Met versus Asp-to-Ala mutant): significantly higher substrate affinity for the antibody than the Endo-S2 D184A mutant; kcat (deglycosylated rituximab [2]; [5]): 0.4973 ± 0.155 s⁻¹
B2	121 ± 17.1 µM	0.17 ± 0.0395 s⁻¹	> 680 µM				KM value relative to Endo-S2 D184M (deglycosylated rituximab [2]; deglycosylated rituximab): more than 20 times
B3				0.06 100*(μmol/min/mg)	1.06 100*(μmol/min/mg)	17.67	Km ([1]; Endo-S mutants): 87.9 ± 10.1 µM; kcat ([1]; Endo-S mutants): 0.0223 ± 0.00317 s⁻¹; Km (deglycosylated rituximab [2]; Endo-S mutants, acceptor substrate deglycosylated rituximab, SCT-Oxa fixed at 400 μM): > 200 µM
B4				0.05 100*(μmol/min/mg)	0.98 100*(μmol/min/mg)	19.60	
B5				2.77 100*(μmol/min/mg)	25.89 100*(μmol/min/mg)	9.35	
